Assay [1] concerns the target 近岸购买的IL-4Rα重组蛋白 (IL-4Rα, Novoprotein, Cat#CS33) (human) (UniProt P24394). The assay is described as follows: indirect ELISA.
Assay [2] addresses 自产IL-4Rα重组蛋白 (in-house human recombinant IL-4Rα, residues 26-232 of NP_000409.1, expressed in 293F cells) (human) (UniProt P24394). Put plainly: indirect ELISA. A general note: ELISA stands for enzyme-linked immunosorbent assay.
Assay [3] addresses IL-4Rα on TF-1 cells (human) (UniProt P24394). The assay is described as follows: cell-based or functional assay.

By EC50 is commonly meant the midpoint of the concentration-response curve.

As for Tab1 (dupilumab) (antibody), the EC50 in assay [1] and in assay [2] was 0.25 nM each time. This substance had an EC50 of neutralisation of IL-4-induced TF-1 cell proliferation in assay [3] of 0.18 nM. In assay [3], this substance yielded an EC50 of neutralisation of IL-13-induced TF-1 cell proliferation of 0.073 nM.

Values taken from patent CN111690066A.
